From article doi:10.1101/093054 (bioRxiv, 2016)

B1: GFP::SPD-2 (natural protein, C. elegans, UniProt P91870 1-824, looked up)
chain: MEDDAPMNLCNEQFEEIEDSPIDDNDNESFYNADGDVELEEEEVHETPKNFKNGGRFKTNMTNPKVNDLTTIEEKNEDLRSAASSRSASRPASVMSDKSFSSQFEFQSGGENAIEEYTNQVFADENKADLLFPETSKFMNGASPPKDKHHSWEPSIHHYDKQPPPDIQTNSPVFGNLNHRKNKLIPQARAKPGANDNEIVERDNDENVPTTSDKSAFITSPMNSTNHDEKTSTPKRPTNRKIGQYQGPNFDLSSIYVGSPQHQNTSISTGQQMPTSSYSHAHSETMMTNQTINESMVRRVLNGNNKNQDLFAALEEARKRRAAQPSKPDFRINTTRTRVPIKPTSARHSGNVVSSTSNDNTTAASSKDLTTSRKAMETFRQNASMADATNSNTASMTSILSTISTARTDISRSSRNHGGGFSNTSVSTVIPANNGNVSLSHGRDGRDSVSSVRTMSRASSTSTVYAGSTFSGVSKPLRIHAKRVAFGCVAVGETLRVEVEVENISDRQCLVRASTDSTTPVYQILDNKLTMVDPKKSIKFQVSFSPSSVGRYQVIMSIEVPAQNFIHKIPMWGNGGIAKFVPTSPDLQQTINQSEYAMCTSCAKRISFKISNSAGTRDGFAMIKVFDSAMRQLPDGCVAFFPAPGFIVKKKSDKRVDIRIDSSYIDLHDENNFRTSSSLSTASTTSSFQRRILPGAKFFVHVVWGEETMRTRLRLLEVRTGQHQLIDGHDFTSFQFSDEEVLRAVPVGFPAIKPEDRDLFAASYRSFFINFFTSTTEFRAATSRKKKEICSNDDSTLLETTAFRNQTFVNDVTIVPNTRFSNRK
B2: PLK-1::GFP, P34331 1-648 (enzyme)
chain: MNRLPNIAKPPQKSNQRKEKAPPEVPALIADKDRGTYYEKGRFLGKGGFAHCYELTNRATREVVAGKVVPKSMLVKQYQRDKMTQEVQIHRELGHINIVKLFNFFEDNLNVYITLELCARRSLMELHKRRKAVTEPEARYFTHQIVDGVLYLHDLNIIHRDMKLGNLFLNDDLVVKIGDFGLATTVNGDERKKTLCGTPNYIAPEVLNKAGHSFEVDIWAVGCILYILLFGQPPFESKSLEETYSRIRHNNYTIPSIATQPAASLIRKMLDPEPTRRPTAKQVQRDGFFKSGFMPTRLPVSCLTMVPKFGGHETSMMEENVAPRGVDARSQRPLNGRAGLSALPQHIVSNNADRERAQQQAAEATFREPEDAYLSQLFHQVAVLLEQRIPGLEEEEAALDGYQSPECLPVFWISKWVDYSDKYGIGYQLCDNSVGVLFNDNSRIMLDQAGNELTYIEKSNKEHYFSMHSGEMPGLLNKKVTLLKYFRSYMNDHLVKAGEGSEQRAGDDLARLPTLRVWFRTKSAIVLHLSNGTVQINFFNDHVKMMMCPLMQAVTFIDQNKRMLTYKLNNLQRNGCPEKFLHRLKYAKTMIERLMSDANVVSQNPARQPDMPRSMAAARSASAGSRGPNQAASHLPQSASGSNIHPRR
B3: EB1-GFP (natural protein, UniProt Q15691 1-268, looked up)
chain: MAVNVYSTSVTSDNLSRHDMLAWINESLQLNLTKIEQLCSGAAYCQFMDMLFPGSIALKKVKFQAKLEHEYIQNFKILQAGFKRMGVDKIIPVDKLVKGKFQDNFEFVQWFKKFFDANYDGKDYDPVAARQGQETAVAPSLVAPALNKPKKPLTSSSAAPQRPISTQRTAAAPKAGPGVVRKNPGVGNGDDEAAELMQQVNVLKLTVEDLEKERDFYFGKLRNIELICQENEGENDPVLQRIVDILYATDEGFVIPDEGGPQEEQEEY
B4: ZYG-9::GFP (natural protein, C. elegans, UniProt G5EEM5 1-1415, looked up)
chain: MSNWDYLDEVDILPKLPPNFDELRESKKWQERKEALEALLKVLTDNERLSTKASYAELIGHLQMVLAKDANINCQALAAKCIGKFATGLRAKFSSFAGPLLPVIFEKMKEKKPMLREPLVDCSNEVGRTMQSLETGQEDILAALAKPNPQIKQQTALFVARQLDLVVPAKQPKGFIKAVVPVFGKLTGDADQDVREASLQGLGAVQRIIGDKNVKNLLGDASSDEGKMKKIGEYAEKSTASFAEEQAKNAPPVAPTSSTPSASAASGDPSGGTATAVVSSGAPVAEADPWDFLDAFDVLSKMPDGFDTNIESKKWQERKEALEGLLQLITANPKLDPKANYGALVERLQKVLEKDANINVAALAANCITGIANGLRTKFQPFAVSVTPIIFEKFKEKKPTLRDPLVACIDAVVATTNLEAVGEIVLAALGKPNPSIKTQTDLFLQRCFMKLNSQTMPKKTLKTLIPSLIKHSGDSDSEVREASYAAMGAMMRAIGEKPSLQLLADIASDNLKMSKIKEFHQKALDEAGPAEIAEMVKSIHKADAPPAAAPPKKTAPPKKQPEDEEVVEEEDEPLKPPPGDKKKKVPVKENEENEPPVVAPKAELLLSDNEDKKQRIKEEKQLKLVKWNFQAPTDEHISQLQTLLGNQAKVSLMSQLFHKDFKQHLAALDSLVRLADTSPRSLLSNSDLLLKWCTLRFFETNPAALIKVLELCKVIVELIRDTETPMSQEEVSAFVPYLLLKTGEAKDNMRTSVRDIVNVLSDVVGPLKMTPMLLDALKSKNARQRSECLLVIEYYITNAGISPLKSLSVEKTVAPFVGDKDVNVRNAAINVLVACFKFEGDQMWKAAGRMADKDKSLVEERIKRTGVKPGSGVVTSPPTGGPKILVPQQQGSVVRRPASRSRTREPEPEEVQSDTFTIRQDTMPPKTSSRYALRDDVFSSAMGRLDGTQVITPPQPVNGWSNNTFQMKRTNSSSSISSIDTSDQIQRSINNISSSLADVAQDAMFQVTYVLNQPEQRHLVDRRADLVFRASAAQLDLVIEEFNAGRDVSGTMDACTQMLFILMGGVETEHGLEPLNASPDTVKAIISSVLRCIIQIGNTESGYGMARSLNRLAMRLIYRVELSNLLCGLILAMTESLQMNTGITELVSKLSSKWCDELEKRRAQLRASDIVDSFNAFYVCALTELKMDISDSHILIVDNYLERVILQQGDVVLDAARRLSRPHMHLTSMINKILQMMRERKIDPIMPGTLEARMPQEDEAVVVRSGVQVSIDNILRDTSMAVKHIEQLNILIASSDRSWNEYMEYLKNNPMGELIKELVGECSRKKRIDFNLSHVVKSSMAVFKAMAATGPVQEEGRITPTDINRMDTMIVGTPLSRGDATITRARGNMIRPKRTTLSRDQMANIRHTLDRVKNH

Assays:
[1] = target: T1, SPD-5::TagRFP (C. elegans, UniProt P91349 1-1198); assay: partitioning into droplets by fluorescence microscopy
T1 sequence (looked up): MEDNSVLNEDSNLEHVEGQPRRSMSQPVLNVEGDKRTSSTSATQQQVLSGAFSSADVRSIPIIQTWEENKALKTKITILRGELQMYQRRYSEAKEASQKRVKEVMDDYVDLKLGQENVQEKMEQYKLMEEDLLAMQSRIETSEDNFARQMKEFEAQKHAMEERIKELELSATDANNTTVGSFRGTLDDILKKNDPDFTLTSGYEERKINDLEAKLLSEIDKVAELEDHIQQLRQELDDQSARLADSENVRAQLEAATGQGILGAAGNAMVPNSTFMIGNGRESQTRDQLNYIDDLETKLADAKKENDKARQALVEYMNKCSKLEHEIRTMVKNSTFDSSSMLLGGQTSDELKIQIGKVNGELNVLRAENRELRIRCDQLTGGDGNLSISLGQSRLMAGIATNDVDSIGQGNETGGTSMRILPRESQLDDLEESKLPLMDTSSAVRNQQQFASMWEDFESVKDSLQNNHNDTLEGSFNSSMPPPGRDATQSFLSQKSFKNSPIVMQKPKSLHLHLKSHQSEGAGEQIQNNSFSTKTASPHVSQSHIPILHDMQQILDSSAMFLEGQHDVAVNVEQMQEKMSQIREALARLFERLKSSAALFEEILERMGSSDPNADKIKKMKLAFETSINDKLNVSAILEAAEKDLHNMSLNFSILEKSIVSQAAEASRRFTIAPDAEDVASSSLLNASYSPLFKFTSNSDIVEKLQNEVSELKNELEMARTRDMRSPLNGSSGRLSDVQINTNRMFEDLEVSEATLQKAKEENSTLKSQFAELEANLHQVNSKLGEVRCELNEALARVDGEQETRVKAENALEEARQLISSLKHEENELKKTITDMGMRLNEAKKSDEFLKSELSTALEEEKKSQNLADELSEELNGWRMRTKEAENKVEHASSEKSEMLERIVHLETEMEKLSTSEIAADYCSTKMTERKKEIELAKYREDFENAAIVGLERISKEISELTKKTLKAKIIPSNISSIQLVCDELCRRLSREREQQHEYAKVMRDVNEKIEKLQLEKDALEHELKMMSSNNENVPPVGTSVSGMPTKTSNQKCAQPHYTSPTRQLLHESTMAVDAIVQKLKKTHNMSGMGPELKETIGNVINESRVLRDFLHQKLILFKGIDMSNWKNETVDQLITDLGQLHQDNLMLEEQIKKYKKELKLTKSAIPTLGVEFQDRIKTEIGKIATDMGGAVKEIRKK

[2] = target: T2, SPD-5::TagRFP (C. elegans), P91349; assay: as above; details: remark: other sources report otherwise
T2 chain: T1 sequence (looked up)

| Molecule | partition coefficient (droplet vs. bulk) [1] | partition coefficient (droplet vs. bulk) [2] |
| --- | --- | --- |
| TPXL-1::GFP (natural protein) | 59 |  |
| B1 | 67 |  |
| B2 |  | 19.8 |
| B3 | 3.2 |  |
| B4 | 101 |  |
